This is an account of results in patent US20220119490A1 (Genentech, published 2022).

One experiment addresses T1, PTPRD expressed on cells (human, UniProt P23468 21-1912).
T1 construct: whole, on cells; also called receptor-type tyrosine-protein phosphatase delta
As to the kind of experiment: cell surface interaction assay: streptavidin-tetramerized biotinylated ECD on transfected cells, immunofluorescence.

The target in the next experiment is T2, PTPRS expressed on cells (human, UniProt Q13332 30-1948).
T2 construct: whole, on cells; also called receptor-type tyrosine-protein phosphatase S
The experiment is described as above.

Experiment [1] has as its target T3, PTPRZ1 expressed on cells (human, UniProt P23471 25-2315).
T3 construct: whole, on cells
As to the kind of experiment: cell surface interaction assay: query ECD tetramerised with fluorescent streptavidin on transfected cells, immunofluorescence.

Another experiment concerns the target T4, PTPRM expressed on cells (human, UniProt P28827 21-1452).
T4 construct: whole, on cells
Described as above.

The target in a further experiment is T5, PTPRT expressed on cells (human, UniProt O14522 26-1441).
T5 construct: whole, on cells
T5 sequence (looked up): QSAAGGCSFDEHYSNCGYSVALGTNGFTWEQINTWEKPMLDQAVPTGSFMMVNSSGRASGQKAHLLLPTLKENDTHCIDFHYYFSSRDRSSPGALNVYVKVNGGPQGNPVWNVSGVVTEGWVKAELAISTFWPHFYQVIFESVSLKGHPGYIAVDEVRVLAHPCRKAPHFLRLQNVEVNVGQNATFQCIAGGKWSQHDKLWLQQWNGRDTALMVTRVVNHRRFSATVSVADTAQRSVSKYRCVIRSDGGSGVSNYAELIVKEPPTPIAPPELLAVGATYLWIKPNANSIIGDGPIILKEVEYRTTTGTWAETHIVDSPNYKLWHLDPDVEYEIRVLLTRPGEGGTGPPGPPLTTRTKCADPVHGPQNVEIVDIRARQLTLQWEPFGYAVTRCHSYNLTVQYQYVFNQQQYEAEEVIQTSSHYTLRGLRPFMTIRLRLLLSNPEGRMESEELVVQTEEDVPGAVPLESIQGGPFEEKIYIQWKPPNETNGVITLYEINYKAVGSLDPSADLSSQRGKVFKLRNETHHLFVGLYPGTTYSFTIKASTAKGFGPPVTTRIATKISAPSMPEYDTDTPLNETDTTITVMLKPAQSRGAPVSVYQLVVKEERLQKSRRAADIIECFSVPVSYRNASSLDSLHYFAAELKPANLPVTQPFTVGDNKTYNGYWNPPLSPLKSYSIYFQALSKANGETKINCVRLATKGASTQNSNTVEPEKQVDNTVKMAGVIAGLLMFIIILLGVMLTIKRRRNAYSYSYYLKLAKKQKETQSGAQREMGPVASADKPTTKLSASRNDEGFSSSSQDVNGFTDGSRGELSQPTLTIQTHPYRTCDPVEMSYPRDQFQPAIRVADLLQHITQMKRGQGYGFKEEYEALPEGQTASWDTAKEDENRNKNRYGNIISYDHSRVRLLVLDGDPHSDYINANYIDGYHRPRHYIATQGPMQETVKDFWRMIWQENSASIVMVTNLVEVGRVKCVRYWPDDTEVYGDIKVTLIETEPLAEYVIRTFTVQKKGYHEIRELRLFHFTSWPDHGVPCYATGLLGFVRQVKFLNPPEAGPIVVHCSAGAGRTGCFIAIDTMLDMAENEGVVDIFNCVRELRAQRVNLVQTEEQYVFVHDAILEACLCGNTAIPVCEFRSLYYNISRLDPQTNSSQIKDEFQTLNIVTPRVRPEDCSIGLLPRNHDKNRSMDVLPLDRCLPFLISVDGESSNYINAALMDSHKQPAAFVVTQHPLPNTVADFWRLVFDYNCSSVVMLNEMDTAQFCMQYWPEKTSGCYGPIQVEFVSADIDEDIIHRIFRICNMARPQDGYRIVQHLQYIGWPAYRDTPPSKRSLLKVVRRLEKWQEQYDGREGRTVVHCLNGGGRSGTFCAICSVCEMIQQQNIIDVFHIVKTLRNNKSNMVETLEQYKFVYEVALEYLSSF
Described as above.

The target of the next experiment is T6, PTPRO expressed on cells (human, UniProt Q16827 30-1216).
T6 construct: whole, on cells
T6 sequence (looked up): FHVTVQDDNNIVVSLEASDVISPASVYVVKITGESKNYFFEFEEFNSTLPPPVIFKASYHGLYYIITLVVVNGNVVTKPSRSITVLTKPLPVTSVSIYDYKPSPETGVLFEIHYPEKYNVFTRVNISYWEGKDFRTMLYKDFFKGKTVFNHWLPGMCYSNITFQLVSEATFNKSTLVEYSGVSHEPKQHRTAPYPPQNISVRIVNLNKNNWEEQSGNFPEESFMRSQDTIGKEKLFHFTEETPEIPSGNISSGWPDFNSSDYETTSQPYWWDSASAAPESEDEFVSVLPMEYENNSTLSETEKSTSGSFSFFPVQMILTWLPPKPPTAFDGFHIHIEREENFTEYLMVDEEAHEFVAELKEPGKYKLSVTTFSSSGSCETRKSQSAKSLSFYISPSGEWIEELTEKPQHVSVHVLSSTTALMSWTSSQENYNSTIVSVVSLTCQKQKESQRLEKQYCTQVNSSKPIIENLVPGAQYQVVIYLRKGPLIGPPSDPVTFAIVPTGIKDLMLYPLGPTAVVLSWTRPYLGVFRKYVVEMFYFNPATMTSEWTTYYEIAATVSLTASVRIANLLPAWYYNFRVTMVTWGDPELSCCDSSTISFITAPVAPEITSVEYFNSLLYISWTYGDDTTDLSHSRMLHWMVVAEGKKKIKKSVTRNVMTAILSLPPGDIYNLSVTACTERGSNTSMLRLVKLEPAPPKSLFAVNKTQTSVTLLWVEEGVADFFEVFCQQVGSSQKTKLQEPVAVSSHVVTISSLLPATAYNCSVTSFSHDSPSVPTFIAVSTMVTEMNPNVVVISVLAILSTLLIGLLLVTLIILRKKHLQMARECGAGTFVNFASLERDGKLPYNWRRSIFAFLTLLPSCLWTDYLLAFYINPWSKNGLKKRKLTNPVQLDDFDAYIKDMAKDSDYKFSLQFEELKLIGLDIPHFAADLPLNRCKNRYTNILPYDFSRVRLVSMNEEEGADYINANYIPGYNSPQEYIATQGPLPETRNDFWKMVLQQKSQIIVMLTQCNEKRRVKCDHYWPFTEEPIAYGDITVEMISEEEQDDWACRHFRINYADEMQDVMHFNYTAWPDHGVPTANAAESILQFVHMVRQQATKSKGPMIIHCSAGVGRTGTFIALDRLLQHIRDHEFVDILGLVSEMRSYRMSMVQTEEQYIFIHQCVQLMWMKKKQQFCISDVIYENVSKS
The description is as above.

In the next experiment the target is T7, PTPRG expressed on cells (human, UniProt P23470 20-1445).
T7 construct: whole, on cells
T7 sequence (P23470 20-1445): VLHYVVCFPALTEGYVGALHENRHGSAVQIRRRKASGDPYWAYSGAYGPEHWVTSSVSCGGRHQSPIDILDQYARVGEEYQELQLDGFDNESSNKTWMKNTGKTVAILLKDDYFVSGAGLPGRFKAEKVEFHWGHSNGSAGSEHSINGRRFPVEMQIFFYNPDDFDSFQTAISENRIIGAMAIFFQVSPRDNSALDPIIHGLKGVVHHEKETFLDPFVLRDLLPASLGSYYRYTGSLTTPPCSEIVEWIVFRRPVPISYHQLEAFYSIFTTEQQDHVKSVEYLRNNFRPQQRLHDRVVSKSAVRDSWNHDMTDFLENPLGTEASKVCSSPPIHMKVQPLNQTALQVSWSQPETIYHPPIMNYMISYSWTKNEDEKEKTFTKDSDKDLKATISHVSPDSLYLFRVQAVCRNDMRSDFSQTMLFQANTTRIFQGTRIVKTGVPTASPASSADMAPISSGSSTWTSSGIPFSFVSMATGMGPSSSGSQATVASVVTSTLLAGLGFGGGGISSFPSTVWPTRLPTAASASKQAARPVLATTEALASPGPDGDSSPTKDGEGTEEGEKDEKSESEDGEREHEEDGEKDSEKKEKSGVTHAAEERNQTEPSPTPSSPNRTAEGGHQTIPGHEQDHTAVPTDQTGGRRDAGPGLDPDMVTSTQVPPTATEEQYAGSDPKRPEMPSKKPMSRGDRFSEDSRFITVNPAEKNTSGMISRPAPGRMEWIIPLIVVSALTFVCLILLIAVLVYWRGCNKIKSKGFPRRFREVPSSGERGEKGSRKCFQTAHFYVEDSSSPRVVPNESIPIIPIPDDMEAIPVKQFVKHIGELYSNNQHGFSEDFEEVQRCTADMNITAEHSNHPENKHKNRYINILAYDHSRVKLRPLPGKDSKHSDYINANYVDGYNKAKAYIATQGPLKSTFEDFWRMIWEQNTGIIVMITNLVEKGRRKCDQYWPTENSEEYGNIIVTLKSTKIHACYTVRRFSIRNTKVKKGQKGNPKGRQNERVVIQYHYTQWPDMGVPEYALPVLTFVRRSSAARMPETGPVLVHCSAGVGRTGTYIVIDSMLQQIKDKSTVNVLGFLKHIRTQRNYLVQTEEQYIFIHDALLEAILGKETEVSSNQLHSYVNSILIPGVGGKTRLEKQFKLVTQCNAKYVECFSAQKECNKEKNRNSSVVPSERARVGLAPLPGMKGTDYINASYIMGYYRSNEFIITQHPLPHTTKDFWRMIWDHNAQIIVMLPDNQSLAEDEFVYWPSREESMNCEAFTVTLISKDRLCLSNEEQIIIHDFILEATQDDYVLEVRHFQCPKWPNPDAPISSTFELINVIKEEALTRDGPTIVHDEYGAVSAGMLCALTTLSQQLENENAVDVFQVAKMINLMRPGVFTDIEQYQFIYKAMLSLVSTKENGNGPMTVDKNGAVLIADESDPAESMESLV
The experiment is described as above.

The next experiment concerns the target T8, PTPRF expressed on cells (human, UniProt P10586 30-1907).
T8 construct: whole, on cells; also called receptor-type tyrosine-protein phosphatase F
Described as above.

Experiment [2] concerns the target T9, BTN3A1 full-length (co-IP) (human, UniProt O00481 30-513).
T9 construct: whole, on cells; also called BTN3A1-HA
As to the kind of experiment: co-immunoprecipitation from co-transfected cells, IP anti-FLAG, western blot anti-HA. For orientation: A western blot detects proteins with antibodies after separation by electrophoresis.

In experiment [3] the target is T10, LRRC4B expressed on cells (human, UniProt Q9NT99 36-713).
T10 construct: whole, on cells; C-terminally tagged in the co-IP; also called NGL-3; LRRC4B-FLAG
T10 sequence (looked up): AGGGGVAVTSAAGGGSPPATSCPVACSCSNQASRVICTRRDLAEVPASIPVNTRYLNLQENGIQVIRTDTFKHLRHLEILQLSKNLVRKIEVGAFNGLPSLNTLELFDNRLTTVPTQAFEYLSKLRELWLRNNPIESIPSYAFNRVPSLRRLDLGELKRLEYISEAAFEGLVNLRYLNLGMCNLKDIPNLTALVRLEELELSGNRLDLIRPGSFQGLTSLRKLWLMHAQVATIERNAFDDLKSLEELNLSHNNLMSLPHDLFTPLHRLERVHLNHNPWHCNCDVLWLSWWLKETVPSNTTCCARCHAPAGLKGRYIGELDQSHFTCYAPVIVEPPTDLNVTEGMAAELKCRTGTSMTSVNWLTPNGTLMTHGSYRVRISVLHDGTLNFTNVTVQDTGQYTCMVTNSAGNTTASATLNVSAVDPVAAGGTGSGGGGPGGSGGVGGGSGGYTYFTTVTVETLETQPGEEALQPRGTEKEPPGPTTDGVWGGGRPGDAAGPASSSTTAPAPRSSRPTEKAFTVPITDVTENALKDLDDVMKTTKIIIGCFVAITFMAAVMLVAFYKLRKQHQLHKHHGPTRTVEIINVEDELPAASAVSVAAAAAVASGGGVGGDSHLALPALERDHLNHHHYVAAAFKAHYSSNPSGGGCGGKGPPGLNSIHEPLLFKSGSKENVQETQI
As to the kind of experiment: cell surface interaction assay: query ECD tetramerised with fluorescent streptavidin on transfected cells, immunofluorescence.

T3 sequence (P23471 25-2315): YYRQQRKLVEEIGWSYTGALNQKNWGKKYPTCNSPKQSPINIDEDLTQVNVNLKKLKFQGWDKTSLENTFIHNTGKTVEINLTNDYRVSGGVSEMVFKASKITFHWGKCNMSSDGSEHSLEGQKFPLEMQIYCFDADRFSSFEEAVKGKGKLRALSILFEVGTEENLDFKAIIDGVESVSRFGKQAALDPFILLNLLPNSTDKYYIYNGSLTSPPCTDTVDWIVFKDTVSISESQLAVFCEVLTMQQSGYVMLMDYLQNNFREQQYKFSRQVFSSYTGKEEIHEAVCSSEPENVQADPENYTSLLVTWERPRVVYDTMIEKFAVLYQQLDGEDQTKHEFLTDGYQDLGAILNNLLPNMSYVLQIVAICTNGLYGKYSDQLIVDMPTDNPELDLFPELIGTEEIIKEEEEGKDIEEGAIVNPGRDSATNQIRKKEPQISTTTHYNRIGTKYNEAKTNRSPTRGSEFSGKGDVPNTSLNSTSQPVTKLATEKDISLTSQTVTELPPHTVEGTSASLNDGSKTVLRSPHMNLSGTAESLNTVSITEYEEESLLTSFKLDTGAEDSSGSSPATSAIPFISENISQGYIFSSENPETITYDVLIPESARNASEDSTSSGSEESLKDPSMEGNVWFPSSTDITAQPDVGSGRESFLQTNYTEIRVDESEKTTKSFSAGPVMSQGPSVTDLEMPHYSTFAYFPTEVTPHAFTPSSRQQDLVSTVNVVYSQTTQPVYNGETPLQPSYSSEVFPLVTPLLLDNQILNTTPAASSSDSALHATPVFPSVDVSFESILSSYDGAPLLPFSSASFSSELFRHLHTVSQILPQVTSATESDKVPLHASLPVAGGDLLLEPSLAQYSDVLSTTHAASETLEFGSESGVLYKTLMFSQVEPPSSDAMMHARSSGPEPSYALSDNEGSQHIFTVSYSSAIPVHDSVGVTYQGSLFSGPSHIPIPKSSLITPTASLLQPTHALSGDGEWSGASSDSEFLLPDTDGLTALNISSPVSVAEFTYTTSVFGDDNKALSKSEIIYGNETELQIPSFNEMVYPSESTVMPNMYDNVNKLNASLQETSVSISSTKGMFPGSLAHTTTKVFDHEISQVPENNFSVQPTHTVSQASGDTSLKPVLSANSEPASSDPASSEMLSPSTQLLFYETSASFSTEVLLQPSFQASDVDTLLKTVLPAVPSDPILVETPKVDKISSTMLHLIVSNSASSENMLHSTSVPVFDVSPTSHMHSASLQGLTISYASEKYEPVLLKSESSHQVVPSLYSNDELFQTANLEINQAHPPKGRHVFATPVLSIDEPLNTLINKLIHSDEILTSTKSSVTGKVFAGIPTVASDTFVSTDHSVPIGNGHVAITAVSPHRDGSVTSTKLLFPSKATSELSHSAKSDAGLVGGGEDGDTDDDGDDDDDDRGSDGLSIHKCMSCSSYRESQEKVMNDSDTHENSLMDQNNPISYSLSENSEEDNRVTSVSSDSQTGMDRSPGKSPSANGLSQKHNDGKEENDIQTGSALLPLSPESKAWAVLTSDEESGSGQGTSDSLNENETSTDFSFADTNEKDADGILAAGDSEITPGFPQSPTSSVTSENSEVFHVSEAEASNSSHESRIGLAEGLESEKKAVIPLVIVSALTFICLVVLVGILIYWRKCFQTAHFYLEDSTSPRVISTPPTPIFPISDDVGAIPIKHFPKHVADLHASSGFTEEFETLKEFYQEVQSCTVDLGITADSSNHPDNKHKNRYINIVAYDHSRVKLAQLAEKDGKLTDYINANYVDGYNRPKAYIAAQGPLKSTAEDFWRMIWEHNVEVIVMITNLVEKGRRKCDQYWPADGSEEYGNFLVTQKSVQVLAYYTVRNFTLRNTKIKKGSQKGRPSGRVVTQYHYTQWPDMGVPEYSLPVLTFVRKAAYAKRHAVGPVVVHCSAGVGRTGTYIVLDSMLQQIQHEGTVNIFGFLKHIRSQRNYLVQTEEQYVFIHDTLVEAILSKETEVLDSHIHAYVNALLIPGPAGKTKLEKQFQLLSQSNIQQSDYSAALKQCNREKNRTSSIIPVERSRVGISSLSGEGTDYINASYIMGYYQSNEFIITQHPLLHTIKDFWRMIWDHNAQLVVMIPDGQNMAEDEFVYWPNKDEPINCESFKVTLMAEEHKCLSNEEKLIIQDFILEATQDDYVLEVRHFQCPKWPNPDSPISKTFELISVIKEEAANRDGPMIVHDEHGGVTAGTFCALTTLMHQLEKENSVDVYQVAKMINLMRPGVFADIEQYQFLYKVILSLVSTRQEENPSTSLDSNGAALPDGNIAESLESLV
T9 sequence (O00481 30-513): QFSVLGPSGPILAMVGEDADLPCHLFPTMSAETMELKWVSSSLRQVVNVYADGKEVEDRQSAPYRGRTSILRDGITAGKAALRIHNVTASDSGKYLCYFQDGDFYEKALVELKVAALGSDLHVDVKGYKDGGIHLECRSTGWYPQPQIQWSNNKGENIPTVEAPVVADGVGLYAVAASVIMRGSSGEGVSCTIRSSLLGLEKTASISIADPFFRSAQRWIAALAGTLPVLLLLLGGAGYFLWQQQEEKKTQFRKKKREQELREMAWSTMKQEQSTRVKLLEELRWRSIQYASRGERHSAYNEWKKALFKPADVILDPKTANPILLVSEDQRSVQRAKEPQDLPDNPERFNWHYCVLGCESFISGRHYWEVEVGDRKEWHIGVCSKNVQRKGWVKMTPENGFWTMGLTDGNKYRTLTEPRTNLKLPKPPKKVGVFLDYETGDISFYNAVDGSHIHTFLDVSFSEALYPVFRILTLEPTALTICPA

B1: SLITRK2 extracellular domain (receptor, human, UniProt Q9H156 22-621, looked up)
chain: RKTAKDICKIRCLCEEKENVLNINCENKGFTTVSLLQPPQYRIYQLFLNGNLLTRLYPNEFVNYSNAVTLHLGNNGLQEIRTGAFSGLKTLKRLHLNNNKLEILREDTFLGLESLEYLQADYNYISAIEAGAFSKLNKLKVLILNDNLLLSLPSNVFRFVLLTHLDLRGNRLKVMPFAGVLEHIGGIMEIQLEENPWNCTCDLLPLKAWLDTITVFVGEIVCETPFRLHGKDVTQLTRQDLCPRKSASDSSQRGSHADTHVQRLSPTMNPALNPTRAPKASRPPKMRNRPTPRVTVSKDRQSFGPIMVYQTKSPVPLTCPSSCVCTSQSSDNGLNVNCQERKFTNISDLQPKPTSPKKLYLTGNYLQTVYKNDLLEYSSLDLLHLGNNRIAVIQEGAFTNLTSLRRLYLNGNYLEVLYPSMFDGLQSLQYLYLEYNVIKEIKPLTFDALINLQLLFLNNNLLRSLPDNIFGGTALTRLNLRNNHFSHLPVKGVLDQLPAFIQIDLQENPWDCTCDIMGLKDWTEHANSPVIINEVTCESPAKHAGEILKFLGREAICPDSPNLSDGTVLSMNHNTDTPRSLSVSPSSYPELHTEVPLSVL
notes: extracellular domain; Soluble query, streptavidin tetramer; also called SLITKR2
As for B1, the binding result with PTPRD expressed on cells is reported as “binds”; with PTPRS expressed on cells it was “binds”; in experiment [1], “no binding”; with PTPRM expressed on cells, “no binding”; with PTPRT expressed on cells, “no binding”; in the experiment with PTPRO expressed on cells it was “no binding”. Moreover, the binding result with PTPRG expressed on cells and with PTPRF expressed on cells was “no binding” each time.

B2: VSIG8-FLAG (receptor, human, UniProt P0DPA2 22-414, looked up)
immunoprecipitated protein: VRINGDGQEVLYLAEGDNVRLGCPYVLDPEDYGPNGLDIEWMQVNSDPAHHRENVFLSYQDKRINHGSLPHLQQRVRFAASDPSQYDASINLMNLQVSDTATYECRVKKTTMATRKVIVTVQARPAVPMCWTEGHMTYGNDVVLKCYASGGSQPLSYKWAKISGHHYPYRAGSYTSQHSYHSELSYQESFHSSINQGLNNGDLVLKDISRADDGLYQCTVANNVGYSVCVVEVKVSDSRRIGVIIGIVLGSLLALGCLAVGIWGLVCCCCGGSGAGGARGAFGYGNGGGVGGGACGDLASEIREDAVAPGCKASGRGSRVTHLLGYPTQNVSRSLRRKYAPPPCGGPEDVALAPCTAAAACEAGPSPVYVKVKSAEPADCAEGPVQCKNGLLV
notes: full-length, tagged; also called VSIG8 full-length (co-IP)
As to B2, the binding result in [2] is “no binding”.

B3: BTN2A2 extracellular domain (receptor, human, UniProt Q8WVV5 33-265, looked up)
chain: QFTVVGPANPILAMVGENTTLRCHLSPEKNAEDMEVRWFRSQFSPAVFVYKGGRERTEEQMEEYRGRITFVSKDINRGSVALVIHNVTAQENGIYRCYFQEGRSYDEAILRLVVAGLGSKPLIEIKAQEDGSIWLECISGGWYPEPLTVWRDPYGEVVPALKEVSIADADGLFMVTTAVIIRDKYVRNVSCSVNNTLLGQEKETVIFIPESFMPSASPWMVALAVILTASPWM
notes: extracellular domain; Soluble query, streptavidin tetramer
On to B3, for which the binding result in [3] was “no binding”.
